Reference: US20230296569A1, “Substance quantification in complex mixtures” (ISA Pharmaceuticals B.V., priority 2021, published 2023)

What was measured:
[1] = Peptide content (assay) of lyophilized drug product by UPLC-UV at 220 nm, method according to the invention (USP reserpine reference standard, RRF); type: physicochemical; details: method according to the invention (USP RS)
Source text: The UPLC method similar to Example 1 was used for the quantification of analytes (i.e. the individual peptides) in mixtures DP-5P (SEQ ID NO: 1-5) and DP-7P (SEQ ID NO: 6-12) and for the determination of content uniformity of mixtures DP-5P and DP-7P (lyophilized product). The method is based on the use of an external reference standard. The relative response factor (ratio of molar extinction coefficients, RRF) against this external reference standard has been established for each peptide. The purity, individual related substances, and the assay of DP-5P and DP-7P were determined by reversed phase rapid HPLC (UPLC) using a mobile phase gradient of ACN/IPA and water and UV detection at λ220 nm.
The following lyophilized peptide compositions were used: DP-5P comprising peptides represented herein by SEQ ID NO: 1-5 admixed at equal net weights of 0.40 mg of each peptide per vial (total amount of protein per vial being 2.00 mg) and 0.56 mg TFA per vial; and DP-7P comprising peptides represented herein by SEQ ID NO: 6-12 admixed at equal net weights of 0.40 mg of each peptide per vial (total amount of protein per vial being 2.80 mg) and 0.96 mg TFA per vial. The following chemicals were used: Acetonitrile, (Biosolve, 01204102); UPLC water, (Type 1, milli-Q); trifluoroacetic acid, (Chem Lab, CLoo.2094.0001), 2-propanol, (UPLC/MS grade, Biosolve, 16264102); Reserpine, (USP, Sigma Aldrich, 1601000). The following equipment was used: QuanRecovery vials, (Waters, 186009186); UPLC pump equipped with a gradient system, autosampler, and UV detection (Waters Acquity or equivalent) and mixer volume 425 μL.
• Mobile phase A: 0.1% (v/v) TFA in water • Mobile phase B: 0.1% (v/v) TFA in 70/30 ACN/IPA • Diluent A: 0.05% (v/v) TFA in water • Diluent B: 0.05% (v/v) TFA in ACN • Blank solution: 80/20 (v/v) diluent A/diluent B • Purge solvent: 80/20 (v/v) water/ACN • Needle wash: 0.05% (v/v) TFA in 80/20 (v/v) water/ACN
5.00 mg Reserpine reference material was accurately weighed and added into a 50 mL volumetric flask. 40.0 mL of blank solution was added, by means of a volumetric pipette. The solution was stirred for 10 min, by means of a magnetic stirrer, until fully dissolved. The solution was diluted to volume with blank solution and mixed well.
Transfer of 2.0 mL, by means of a volumetric pipette, of stock reference solution 1 into a 20 mL volumetric flask. Diluted to volume with blank solution and homogenized.
This sample preparation was setup for lyophilized products DP-5P and DP-7P in an initially sealed container. Before opening and dissolving the drug product, the vials were equilibrated at room temperature for at least 1 hour. The content of the vial was dissolved with 0.8 mL of diluent B, and stirred for 20 min, using a magnetic stirrer. 3.2 mL of diluent A were added. The solution was stirred well for 20 min, using a magnetic stirrer. After dissolving the content of the vial, the sample vial was kept on the lab bench for 30 minutes. The solution was stirred briefly and transferred into an HPLC vial.
• Column: Advance Bio Peptide Map (2.7 μm, 250 x 2.1 mm) • Sample matrix 0.05%v/v TFA in ACN : water (1:4 v/v) • Sample concentration 100 μg/mL net peptide (of each drug substance), duplicate • Injection volume: 10 μL • Column temperature: 40° C. • Sample temperature: 5° C. • Detection: UV (λ=220 nm) • Flow rate: 0.2 mL/min • Run time: 65 min • Purge solvent: 80/20 (v/v) water/ACN • Needle wash: 0.05% (v/v) TFA in 80/20 water/ACN (v/v) (20 s) • Seal wash: 90/10 (v/v) water/MeOH • Elution mode: Gradient elution • Eluent A: 0.1%v/v TFA in water • Eluent B: 0.1%v/v TFA in ACN/IPA (70:30 v/v)
The RRF was determined for all 12 peptides, enabling the quantification of each peptide against a reserpine as shown above. For the determination, the absorbance of each peptide in a solution comprising said peptide at a known concentration, and of a reference standard solution comprising reserpine at a known concentration, were measured at 220 nm. […]

[2] = Peptide content (assay) of lyophilized drug product by UPLC-UV at 220 nm, conventional method (peptide as reference standard); type: physicochemical; details: conventional method (peptide as RS)
Method: The purity including individual related substances and the assay of a DP-5P (5 peptides, SEQ ID NOs: 1-5) and DP-7P (7 peptides, SEQ ID NOs: 6-12) mixture were determined by reversed phase rapid HPLC (UPLC) using a mobile phase gradient of acetonitrile and water and UV detection at λ=220 nm.
• Column: RP C18, e.g. Waters Acquity, BEH 130 PST (1.7 μm, 150×2.1 mm) • Sample matrix Eluent A : Eluent B=85:15 (v/v). • Sample concentration 100 μg/mL net peptide (of each drug substance mixture), duplicate • Injection volume: 5 μL • Column temperature: 65° C. • Sample temperature: 5° C. • Detection: UV (λ=220 nm) • Flow rate: 0.3 mL/min • Eluent A: 0.05%v/v TFA and 1%v/v Acetonitrile (ACN) in water • Eluent B: 0.05%v/v TFA in ACN
The relative retention times (RRTs) assigned to peptides and related substances both in a DP-5P (SEQ ID NO: 1-5) and DP-7P (SEQ ID NO: 6-12) mixture was calculated with reference to the retention time of the peptide eluting in the middle (FIG. 1 and FIG. 2). That retention time was used as reference as the main peak of this drug substance was detected approx. in the center of the chromatogram. The related substances were determined by area normalization. The individual related substances were reported≥0.10%a/a. The total related substances were calculated as the sum of all individual related substances equal to or greater than a disregard limit of 0.0500%a/a. The purity was calculated as the difference between total related substances and 100%.
The assay of each of the peptides was calculated against a reference standard solution containing either five peptides (DP-5P) or seven peptides (DP-7P) and was expressed in percent and in mg net peptide/vial. For this reference method, the absorption ratio between the reference substance and the analyte is 1, because the reference substance is the analyte itself.
At T=0 months (TOM) the peptide content was measured using the conventional method of Example 2. From T=48 months (T48M) onwards the peptide content was measured with the conventional method of Example 2 and the method according to the invention of Example 3.

Sequence | Assay (mg/vial) ([1]; DP-5P batch, T48M) | Label claim (% target 0.40 mg/vial) ([1]; DP-5P batch, T48M) [%] | Assay (mg/vial) ([1]; DP-5P batch, T54M) | Label claim (% target 0.40 mg/vial) ([1]; DP-5P batch, T54M) [%] | Assay (mg/vial) ([1]; DP-5P batch, T60M) | Label claim (% target 0.40 mg/vial) ([1]; DP-5P batch, T60M) [%] | Assay (mg/vial) ([2]; DP-5P batch, T0M) | Label claim (% target 0.40 mg/vial) ([2]; DP-5P batch, T0M) [%] | Assay (mg/vial) ([2]; DP-5P batch, T48M) | Label claim (% target 0.40 mg/vial) ([2]; DP-5P batch, T48M) [%] | Assay (mg/vial) ([2]; DP-5P batch, T54M) | Label claim (% target 0.40 mg/vial) ([2]; DP-5P batch, T54M) [%] | Assay (mg/vial) ([2]; DP-5P batch, T60M) | Label claim (% target 0.40 mg/vial) ([2]; DP-5P batch, T60M) [%] | Assay (mg/vial) ([1]; DP-7P batch, T48M) | Label claim (% target 0.40 mg/vial) ([1]; DP-7P batch, T48M) [%] | Assay (mg/vial) ([1]; DP-7P batch, T54M) | Label claim (% target 0.40 mg/vial) ([1]; DP-7P batch, T54M) [%] | Assay (mg/vial) ([1]; DP-7P batch, T60M) | Label claim (% target 0.40 mg/vial) ([1]; DP-7P batch, T60M) [%] | further results
RCINCQKPLCPEEKQRHLDKKQRFHNIRGRWT (Peptide 4) | 0.3820 | 96 | 0.3966 | 99 | 0.3842 | 96 | 0.3936 | 98 | 0.3937 | 98 | 0.3911 | 98 | 0.3913 | 98 | – | – | – | – | – | – | –
RDLCIVYRDGNPYAVCDKCLKFYSKI (Peptide 11) | – | – | – | – | – | – | – | – | – | – | – | – | – | – | 0.3866 | 97 | 0.3815 | 95 | 0.3788 | 95 | Assay (mg/vial) ([2]; DP-7P batch, T0M): 0.4235 mg/vial; Label claim (% target 0.40 mg/vial) ([2]; DP-7P batch, T0M): 106%; Assay (mg/vial) ([2]; DP-7P batch, T48M): 0.4293 mg/vial; Label claim (% target 0.40 mg/vial) ([2]; DP-7P batch, T48M): 107%; Assay (mg/vial) ([2]; DP-7P batch, T54M): 0.4192 mg/vial; Label claim (% target 0.40 mg/vial) ([2]; DP-7P batch, T54M): 105%; Assay (mg/vial) ([2]; DP-7P batch, T60M): 0.4209 mg/vial; Label claim (% target 0.40 mg/vial) ([2]; DP-7P batch, T60M): 105%
TLRLCVQSTHVDIRTLEDLLMGTLGIVCPICSQKP (Peptide 5) | 0.4028 | 101 | 0.4021 | 101 | 0.3968 | 99 | 0.3976 | 99 | 0.4107 | 103 | 0.3948 | 99 | 0.4011 | 100 | – | – | – | – | – | – | –
YGTTLEQQYNKPLCDLLIRCINCQKPLCPEEK (Peptide 12) | – | – | – | – | – | – | – | – | – | – | – | – | – | – | 0.4132 | 103 | 0.4034 | 101 | 0.4010 | 100 | Assay (mg/vial) ([2]; DP-7P batch, T0M): 0.4261 mg/vial; Label claim (% target 0.40 mg/vial) ([2]; DP-7P batch, T0M): 107%; Assay (mg/vial) ([2]; DP-7P batch, T48M): 0.4323 mg/vial; Label claim (% target 0.40 mg/vial) ([2]; DP-7P batch, T48M): 108%; Assay (mg/vial) ([2]; DP-7P batch, T54M): 0.4215 mg/vial; Label claim (% target 0.40 mg/vial) ([2]; DP-7P batch, T54M): 105%; Assay (mg/vial) ([2]; DP-7P batch, T60M): 0.4219 mg/vial; Label claim (% target 0.40 mg/vial) ([2]; DP-7P batch, T60M): 105%
